Patent US20210388087A1 (Chugai, published 2021)

B1: GLS3000 S56P (antibody, name in Kabat numbering, V domains shown)
VH: QVQLVESGGGVVQPGRSLRLSCAASGFTFSNAWMHWVRQAPGKGLEWVAQIKAKSNNYATYYAESVKGRFTISRDDSKNSLYLQMNSLKTEDTAVYYCRYVHYGAYYGVDAWGQGTTVTVSS
VL: DIVMTQSPLSLPVTPGEPASISCRSSQSLVHSNRNTYLHWYQQKPGQAPRLLIYKVSNRFPGVPDRFSGSGSGTDFTLKISRVEAEDVGVYYCGQGTQVPYTFGQGTKLEIK
notes: one-arm IgG as m2
B2: GLS3000 T31K (antibody, name in Kabat numbering, V domains shown)
VH: QVQLVESGGGVVQPGRSLRLSCAASGFTFSNAWMHWVRQAPGKGLEWVAQIKAKSNNYATYYAESVKGRFTISRDDSKNSLYLQMNSLKTEDTAVYYCRYVHYGAYYGVDAWGQGTTVTVSS
VL: DIVMTQSPLSLPVTPGEPASISCRSSQSLVHSNRNKYLHWYQQKPGQAPRLLIYKVSNRFSGVPDRFSGSGSGTDFTLKISRVEAEDVGVYYCGQGTQVPYTFGQGTKLEIK
notes: one-arm IgG as m2
B3: GLS3000 S56T (antibody, name in Kabat numbering, V domains shown)
VH: QVQLVESGGGVVQPGRSLRLSCAASGFTFSNAWMHWVRQAPGKGLEWVAQIKAKSNNYATYYAESVKGRFTISRDDSKNSLYLQMNSLKTEDTAVYYCRYVHYGAYYGVDAWGQGTTVTVSS
VL: DIVMTQSPLSLPVTPGEPASISCRSSQSLVHSNRNTYLHWYQQKPGQAPRLLIYKVSNRFTGVPDRFSGSGSGTDFTLKISRVEAEDVGVYYCGQGTQVPYTFGQGTKLEIK
notes: one-arm IgG as m2
B4: GLS3000 T92A (antibody, name in Kabat numbering, V domains shown)
VH: QVQLVESGGGVVQPGRSLRLSCAASGFTFSNAWMHWVRQAPGKGLEWVAQIKAKSNNYATYYAESVKGRFTISRDDSKNSLYLQMNSLKTEDTAVYYCRYVHYGAYYGVDAWGQGTTVTVSS
VL: DIVMTQSPLSLPVTPGEPASISCRSSQSLVHSNRNTYLHWYQQKPGQAPRLLIYKVSNRFSGVPDRFSGSGSGTDFTLKISRVEAEDVGVYYCGQGAQVPYTFGQGTKLEIK
notes: one-arm IgG as m2
B5: GLS3000 T31N (antibody, name in Kabat numbering, V domains shown)
VH: QVQLVESGGGVVQPGRSLRLSCAASGFTFSNAWMHWVRQAPGKGLEWVAQIKAKSNNYATYYAESVKGRFTISRDDSKNSLYLQMNSLKTEDTAVYYCRYVHYGAYYGVDAWGQGTTVTVSS
VL: DIVMTQSPLSLPVTPGEPASISCRSSQSLVHSNRNNYLHWYQQKPGQAPRLLIYKVSNRFSGVPDRFSGSGSGTDFTLKISRVEAEDVGVYYCGQGTQVPYTFGQGTKLEIK
notes: one-arm IgG as m2
B6: GLS3000 T92D (antibody, name in Kabat numbering, V domains shown)
VH: QVQLVESGGGVVQPGRSLRLSCAASGFTFSNAWMHWVRQAPGKGLEWVAQIKAKSNNYATYYAESVKGRFTISRDDSKNSLYLQMNSLKTEDTAVYYCRYVHYGAYYGVDAWGQGTTVTVSS
VL: DIVMTQSPLSLPVTPGEPASISCRSSQSLVHSNRNTYLHWYQQKPGQAPRLLIYKVSNRFSGVPDRFSGSGSGTDFTLKISRVEAEDVGVYYCGQGDQVPYTFGQGTKLEIK
notes: one-arm IgG as m2
B7: GLS3000 T31D (antibody, name in Kabat numbering, V domains shown)
VH: QVQLVESGGGVVQPGRSLRLSCAASGFTFSNAWMHWVRQAPGKGLEWVAQIKAKSNNYATYYAESVKGRFTISRDDSKNSLYLQMNSLKTEDTAVYYCRYVHYGAYYGVDAWGQGTTVTVSS
VL: DIVMTQSPLSLPVTPGEPASISCRSSQSLVHSNRNDYLHWYQQKPGQAPRLLIYKVSNRFSGVPDRFSGSGSGTDFTLKISRVEAEDVGVYYCGQGTQVPYTFGQGTKLEIK
notes: one-arm IgG as m2
B8: GLS3000 T31P (antibody, name in Kabat numbering, V domains shown)
VH: QVQLVESGGGVVQPGRSLRLSCAASGFTFSNAWMHWVRQAPGKGLEWVAQIKAKSNNYATYYAESVKGRFTISRDDSKNSLYLQMNSLKTEDTAVYYCRYVHYGAYYGVDAWGQGTTVTVSS
VL: DIVMTQSPLSLPVTPGEPASISCRSSQSLVHSNRNPYLHWYQQKPGQAPRLLIYKVSNRFSGVPDRFSGSGSGTDFTLKISRVEAEDVGVYYCGQGTQVPYTFGQGTKLEIK
notes: one-arm IgG as m2
B9: GLS3000 T92P (antibody, name in Kabat numbering, V domains shown)
VH: QVQLVESGGGVVQPGRSLRLSCAASGFTFSNAWMHWVRQAPGKGLEWVAQIKAKSNNYATYYAESVKGRFTISRDDSKNSLYLQMNSLKTEDTAVYYCRYVHYGAYYGVDAWGQGTTVTVSS
VL: DIVMTQSPLSLPVTPGEPASISCRSSQSLVHSNRNTYLHWYQQKPGQAPRLLIYKVSNRFSGVPDRFSGSGSGTDFTLKISRVEAEDVGVYYCGQGPQVPYTFGQGTKLEIK
notes: one-arm IgG as m2
B10: GLS3000 S56W (antibody, name in Kabat numbering, V domains shown)
VH: QVQLVESGGGVVQPGRSLRLSCAASGFTFSNAWMHWVRQAPGKGLEWVAQIKAKSNNYATYYAESVKGRFTISRDDSKNSLYLQMNSLKTEDTAVYYCRYVHYGAYYGVDAWGQGTTVTVSS
VL: DIVMTQSPLSLPVTPGEPASISCRSSQSLVHSNRNTYLHWYQQKPGQAPRLLIYKVSNRFWGVPDRFSGSGSGTDFTLKISRVEAEDVGVYYCGQGTQVPYTFGQGTKLEIK
notes: one-arm IgG as m2
B11: GLS3000 T92S (antibody, name in Kabat numbering, V domains shown)
VH: QVQLVESGGGVVQPGRSLRLSCAASGFTFSNAWMHWVRQAPGKGLEWVAQIKAKSNNYATYYAESVKGRFTISRDDSKNSLYLQMNSLKTEDTAVYYCRYVHYGAYYGVDAWGQGTTVTVSS
VL: DIVMTQSPLSLPVTPGEPASISCRSSQSLVHSNRNTYLHWYQQKPGQAPRLLIYKVSNRFSGVPDRFSGSGSGTDFTLKISRVEAEDVGVYYCGQGSQVPYTFGQGTKLEIK
notes: one-arm IgG as m2
B12: GLS3000 T31E (antibody, name in Kabat numbering, V domains shown)
VH: QVQLVESGGGVVQPGRSLRLSCAASGFTFSNAWMHWVRQAPGKGLEWVAQIKAKSNNYATYYAESVKGRFTISRDDSKNSLYLQMNSLKTEDTAVYYCRYVHYGAYYGVDAWGQGTTVTVSS
VL: DIVMTQSPLSLPVTPGEPASISCRSSQSLVHSNRNEYLHWYQQKPGQAPRLLIYKVSNRFSGVPDRFSGSGSGTDFTLKISRVEAEDVGVYYCGQGTQVPYTFGQGTKLEIK
notes: one-arm IgG as m2
B13: GLS3000 T92E (antibody, name in Kabat numbering, V domains shown)
VH: QVQLVESGGGVVQPGRSLRLSCAASGFTFSNAWMHWVRQAPGKGLEWVAQIKAKSNNYATYYAESVKGRFTISRDDSKNSLYLQMNSLKTEDTAVYYCRYVHYGAYYGVDAWGQGTTVTVSS
VL: DIVMTQSPLSLPVTPGEPASISCRSSQSLVHSNRNTYLHWYQQKPGQAPRLLIYKVSNRFSGVPDRFSGSGSGTDFTLKISRVEAEDVGVYYCGQGEQVPYTFGQGTKLEIK
notes: one-arm IgG as m2
B14: GLS3000 S56V (antibody, name in Kabat numbering, V domains shown)
VH: QVQLVESGGGVVQPGRSLRLSCAASGFTFSNAWMHWVRQAPGKGLEWVAQIKAKSNNYATYYAESVKGRFTISRDDSKNSLYLQMNSLKTEDTAVYYCRYVHYGAYYGVDAWGQGTTVTVSS
VL: DIVMTQSPLSLPVTPGEPASISCRSSQSLVHSNRNTYLHWYQQKPGQAPRLLIYKVSNRFVGVPDRFSGSGSGTDFTLKISRVEAEDVGVYYCGQGTQVPYTFGQGTKLEIK
notes: one-arm IgG as m2
B15: GLS3000 S56Q (antibody, name in Kabat numbering, V domains shown)
VH: QVQLVESGGGVVQPGRSLRLSCAASGFTFSNAWMHWVRQAPGKGLEWVAQIKAKSNNYATYYAESVKGRFTISRDDSKNSLYLQMNSLKTEDTAVYYCRYVHYGAYYGVDAWGQGTTVTVSS
VL: DIVMTQSPLSLPVTPGEPASISCRSSQSLVHSNRNTYLHWYQQKPGQAPRLLIYKVSNRFQGVPDRFSGSGSGTDFTLKISRVEAEDVGVYYCGQGTQVPYTFGQGTKLEIK
notes: one-arm IgG as m2
B16: GLS3000 T92I (antibody, name in Kabat numbering, V domains shown)
VH: QVQLVESGGGVVQPGRSLRLSCAASGFTFSNAWMHWVRQAPGKGLEWVAQIKAKSNNYATYYAESVKGRFTISRDDSKNSLYLQMNSLKTEDTAVYYCRYVHYGAYYGVDAWGQGTTVTVSS
VL: DIVMTQSPLSLPVTPGEPASISCRSSQSLVHSNRNTYLHWYQQKPGQAPRLLIYKVSNRFSGVPDRFSGSGSGTDFTLKISRVEAEDVGVYYCGQGIQVPYTFGQGTKLEIK
notes: one-arm IgG as m2
B17: GLS3000 T92L (antibody, name in Kabat numbering, V domains shown)
VH: QVQLVESGGGVVQPGRSLRLSCAASGFTFSNAWMHWVRQAPGKGLEWVAQIKAKSNNYATYYAESVKGRFTISRDDSKNSLYLQMNSLKTEDTAVYYCRYVHYGAYYGVDAWGQGTTVTVSS
VL: DIVMTQSPLSLPVTPGEPASISCRSSQSLVHSNRNTYLHWYQQKPGQAPRLLIYKVSNRFSGVPDRFSGSGSGTDFTLKISRVEAEDVGVYYCGQGLQVPYTFGQGTKLEIK
notes: one-arm IgG as m2
B18: GLS3000 S56Y (antibody, name in Kabat numbering, V domains shown)
VH: QVQLVESGGGVVQPGRSLRLSCAASGFTFSNAWMHWVRQAPGKGLEWVAQIKAKSNNYATYYAESVKGRFTISRDDSKNSLYLQMNSLKTEDTAVYYCRYVHYGAYYGVDAWGQGTTVTVSS
VL: DIVMTQSPLSLPVTPGEPASISCRSSQSLVHSNRNTYLHWYQQKPGQAPRLLIYKVSNRFYGVPDRFSGSGSGTDFTLKISRVEAEDVGVYYCGQGTQVPYTFGQGTKLEIK
notes: one-arm IgG as m2
B19: GLS3000 T31I (antibody, name in Kabat numbering, V domains shown)
VH: QVQLVESGGGVVQPGRSLRLSCAASGFTFSNAWMHWVRQAPGKGLEWVAQIKAKSNNYATYYAESVKGRFTISRDDSKNSLYLQMNSLKTEDTAVYYCRYVHYGAYYGVDAWGQGTTVTVSS
VL: DIVMTQSPLSLPVTPGEPASISCRSSQSLVHSNRNIYLHWYQQKPGQAPRLLIYKVSNRFSGVPDRFSGSGSGTDFTLKISRVEAEDVGVYYCGQGTQVPYTFGQGTKLEIK
notes: one-arm IgG as m2
B20: GLS3000 S56R (antibody, name in Kabat numbering, V domains shown)
VH: QVQLVESGGGVVQPGRSLRLSCAASGFTFSNAWMHWVRQAPGKGLEWVAQIKAKSNNYATYYAESVKGRFTISRDDSKNSLYLQMNSLKTEDTAVYYCRYVHYGAYYGVDAWGQGTTVTVSS
VL: DIVMTQSPLSLPVTPGEPASISCRSSQSLVHSNRNTYLHWYQQKPGQAPRLLIYKVSNRFRGVPDRFSGSGSGTDFTLKISRVEAEDVGVYYCGQGTQVPYTFGQGTKLEIK
notes: one-arm IgG as m2

Each binder was assayed against T1, CD3 epsilon homodimer protein (UniProt P07766 23-126) (assay: SPR Biacore T200, CD3e homodimer on chip, vs unaltered GLS3000 antibody).
T1 construct: also called CD3 (CD3 epsilon)
T1 sequence (P07766 23-126): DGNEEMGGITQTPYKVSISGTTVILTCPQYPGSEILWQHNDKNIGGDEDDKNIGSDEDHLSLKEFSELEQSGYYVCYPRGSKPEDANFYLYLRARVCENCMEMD
Experimental: An appropriate amount of CD3 epsilon homodimer protein was immobilized onto Sensor chip CM4 (GE Healthcare Japan Corp.) by the amine coupling method. Then, the antibody having an appropriate concentration was injected thereto as an analyte and allowed to interact with the CD3 epsilon homodimer protein on the sensor chip. Then, the sensor chip was regenerated by the injection of 10 mmol/L glycine-HCl (pH 1.5). The assay was conducted at 25 degrees C., and HBS-EP+(GE Healthcare Japan Corp.) was used as a running buffer. […] Each parameter was calculated using Biacore T200 Evaluation Software (GE Healthcare Japan Corp.).

Going from B1 to B2, the “ratio of amounts bound (Z=Y/X)” value rises from 0.95 to 1.04.

First: B3
Second: B4
The “ratio of amounts bound (Z=Y/X)” value of the first is higher: 0.97 for the first, 0.63 for the second.

First: B5
Second: B6
The “ratio of amounts bound (Z=Y/X)” value of the first is higher: 0.32 for the first, 0.18 for the second.

Compared with B7, B8 is higher in “ratio of amounts bound (Z=Y/X)” value: 0.23 for the first, 0.31 for the second.

Compared with B9, B10 is higher in “ratio of amounts bound (Z=Y/X)” value: 0.26 for the first, 1.38 for the second.

First: B11
Second: B12
The “ratio of amounts bound (Z=Y/X)” value of the first is higher: 0.96 for the first, 0.49 for the second.

Compared with B13, B14 is higher in “ratio of amounts bound (Z=Y/X)” value: 0.17 for the first, 0.95 for the second.

Compared with B15, B16 is lower in “ratio of amounts bound (Z=Y/X)” value: 1.04 for the first, 0.34 for the second.

Compared with B17, B18 is higher in “ratio of amounts bound (Z=Y/X)” value: 0.42 for the first, 1.46 for the second.

First: B19
Second: B20
The “ratio of amounts bound (Z=Y/X)” value of the first is lower: 0.97 for the first, 1.36 for the second.
